Data from PMC4726246.

Columns and labels:
[1] = ratio of TEVC current to surface expression; settings: glycan lost; control: wild type
[2] = TEVC, co-expression in Xenopus oocytes, +40 mV; settings: glycan lost; control: TASK-3 WT alone

B1: TASK-1: N53A (protein)
parent chain: MKRQNVRTLALIVCTFTYLLVGAAVFDALESEPELIERQRLELRQQELRARYNLSQGGYEELERVVLRLKPHKAGVQWRFAGSFYFAITVITTIGYGHAAPSTDGGKVFCMFYALLGIPLTLVMFQSLGERINTLVRYLLHRAKKGLGMRRADVSMANMVLIGFFSCISTLCIGAAAFSHYEHWTFFQAYYYCFITLTTIGFGDYVALQKDQALQTQPQYVAFSFVYILTGLTVIGAFLNLVVLRFMTMNAEDEKRDAEHRALLTRNGQAGGGGGGGSAHTTDTASSTAAAGGGGFRNVYAEVLHFQSMCSCLWYKSREKLQYSIPMIIPRDLSTSDTCVEQSHSSPGGGGRYSDTPSRRCLCSGAPRSAISSVSTGLHSLSTFRGLMKRRSSV
For B1, which “other: conductivity (current / surface expression ratio)” value [1] is on record?
The value was “no change”.

What about the “other: current of co-expressed TASK-3” value [2] of the same protein?
The value was “no change”.

B2: TASK-1: S55A (protein)
parent chain: MKRQNVRTLALIVCTFTYLLVGAAVFDALESEPELIERQRLELRQQELRARYNLSQGGYEELERVVLRLKPHKAGVQWRFAGSFYFAITVITTIGYGHAAPSTDGGKVFCMFYALLGIPLTLVMFQSLGERINTLVRYLLHRAKKGLGMRRADVSMANMVLIGFFSCISTLCIGAAAFSHYEHWTFFQAYYYCFITLTTIGFGDYVALQKDQALQTQPQYVAFSFVYILTGLTVIGAFLNLVVLRFMTMNAEDEKRDAEHRALLTRNGQAGGGGGGGSAHTTDTASSTAAAGGGGFRNVYAEVLHFQSMCSCLWYKSREKLQYSIPMIIPRDLSTSDTCVEQSHSSPGGGGRYSDTPSRRCLCSGAPRSAISSVSTGLHSLSTFRGLMKRRSSV
With B2 as the protein, how does the “other: conductivity (current / surface expression ratio)” value [1] read?
The value was “no change”.
